Results reported in patent US20260028391A1.

Target: fusion glycoprotein of the RSV used in the neutralization assay of Example 1 (respiratory syncytial virus (strain not stated))
Assay: cell-based or functional assay

RSV Neutralization - IC50 | Binder
4.2 ng/mL | MPK176 (antibody, V domains shown) VH: QVQLVQSGAEVKKPGASVRVSCKASGYTLTAYGISWVRQAPGQGLEWMGWISPKHGNTHYAQRFQGRVTMTTDTSTSTAYMELRSLRPDDTAVYFCAREGVDIMAVPWYFDYWGQGTLVAVSS VL: SYELTQPPSVSVAPGQTARISCGGNNIGSKSVHWYQQKPGQAPVVVVYDDSDRPSGIPERFSGSNSGNTATLTISGVEAGDEADYFCQVWDSATDHWVFGGGTKLTVL
1.5 ng/mL | MPK180 (antibody, V domains shown) VH: QVQLVQSGAEVKKPGESLRISCKASGYSFASYWIGWVRQKPGKGPEWMGIIFPNDSDTEYSPSFEGQVSISADKSTSTVHLQWGSLKASDTAVYYCGRMYYLGALETWGQGTMVTVSS VL: AIRMTQSPSSLSASVGDRVTIVCQASHDISNFLNWYQQRPGQAPKLLIYDASFLETGVPSRFSGSGSGTYFTLTISSLQPEDFATYYCQRYDNRFFTFGPGTKVDIK
1.4 ng/mL | MPK163 (antibody, V domains shown) VH: EVQLVQSGAEVKKPGESLKMSCKTSGYSFRSYWIAWVRQRPGKGLEWMGIIWPGDSDVRYGPSFQGQVTISADRSTNTAYLQWSSLKASDTAIYWCARQNYDFWSGHSLGTGADYYYGMDVWGQGTTVTVSS VL: SSELTQPPSASGTPGQRVTISCSGSSSNIGRNIVHWYQHVPGTAPKLLIYNNDERPSGVPDRFSGSKSGTSASLAISGLQSEDEADYYCTVWDDSLNGGVFGGGTKVTVL
2.8 ng/mL | MPK161-v1 (antibody, V domains shown) VH: EVQLVQSGVEAKKPGESLKISCRASGYSFVNFWIGWVRQVPGKGLEWMGFIYPFDSDTKYGPSFEGHVIISADKSTNTAYLEWRSLRASDSAMYYCARFTFGIALVAGDVTGGGQAFEVWGQGTLVSVSS VL: AIWMTQSPSTLSASVGDRVTVTCRASLSIGTWLAWYQHKPGKAPKFLIYKASSLESGVPSRFSGSGSGTEFTLTISSLQPDDFATYYCQQYDSYPFTFGGGTKVEIK
1.1 ng/mL | MPK161-v2 (antibody, V domains shown) VH: EVQLVQSGVEAKKPGESLKISCRASGYSFVNFWIGWVRQVPGKGLEWMGFIYPFDSDTKYGPSFEGHVIISADKSTNTAYLEWRSLRASDSAMYYCARFTFGIALVAGDVTGGGQAFEVWGQGTLVSVSS VL: EIVMMQSPATLSVSPGDRATLSCRASQSVAGNLAWYQQRPGQAPRLLIYAASTRATGVPARFSGSGSETEFTLTISSLQSEDFAVYYCHHYSNWPQAFGQGTRLDIK
2.6 ng/mL | MPK194-v2 (antibody, V domains shown) VH: QVQLVESGGGVVQPGRSLRLSCVASGFTFSNYPLHWVRQAPGKGLQWVAVISYDGSENYYADSVKGRFTISRDNSKSTLYLQMNSLRPEDTAIYYCARSKVAGGSYYFDYWGQGTLVPVSS VL: SYELTQPPSVSVAPGQAARVSCGGNNIGSQYVQWYQQKPGQAPVLVIYDDDDRPSGIPERFSGSNSGSTATLTISRVEAGDEADYYCQVWDKSNHVVVFGGGTKLTVL
10.2 ng/mL | MPK173 (antibody, V domains shown) VH: QVQLVQSGAEVRKPGASVKVSCRASGYTFSNFGITWVRQAPGQGLEWMGWISAYNGNTKSAQKFQDRVTMTTDTTTSTAYMELRSLRSDDTAVYYCARDTPSSDGAALLDYWGQGTLVTVSS VL: DIVMTQTPLSLPVTLGQPASISCRSSQSLVYSDGNTYLSWFQQRPGQSPRRLIYKVSNRDSGVPDRFSGSGSGTYFTLKINRVEAEDVGVYYCMQSKYWLTFGQGTKVEIK
1.1 ng/mL | MPK170 (antibody, V domains shown) VH: QVQLVQSGAEVKKPGESLKISCKGSGYSFINYWIGWVRQMPGKGLEWMGIIYPFDSDTKYSPSFQGHVTISADKSINTAYVQWSSLKASDTAIYYCARFTFGIAVSTDDVSGEGQAFDLWGQGTRVTVSS VL: EIVMMQSPATLSVSPGERATLSCRASQSVAGNLAWYQQRPGQAPRLLIYAGSARATGVPARFSGSGSETEFTLTISSLQSEDFAVYYCHHYSNWPQAFGQGTRLDIK
1 ng/mL | MPK188 (antibody, V domains shown) VH: EVQLVQSGAEVKKPGESLKISCQASGYSFINYWIGWVRQMPGKGLEWMGIIYPFDSDTNYSPSFQGLVTISADKSINTAYLQWRSLKASDTAMYYCARFTFGIALVAGDVNGEGHAFDIWGQGTVVTVSS VL: EIVMTQSPATLSVSPGESATLSCRASQGVAGNLAWYQQRPGQAPRLLIYGTSTRATGVPARFSGSGSETEFTLTISSLQSEDFAVYYCHHYSNWPQAFGQGTRLDIK
1.6 ng/mL | MPK175 (antibody, V domains shown) VH: QVQLVQSGAEVKKPGESLKISCQASGYSFINYWIGWVRQKPGKGLEWMGIIYPFDSETKYSPSFQGHVTISADRFTNTAYVQWTSLKASDTAIYYCARFTFGLAVVAGGLSDDGQAFDIWGQGTRVTVSS VL: EIVLTQSPATLSVSPGERATLSCRASQSVAANLAWYQQRPGQTPRLLIYGASTRATGVPARFSGSGSETEFTLTISSLQPEDFAVYYCHHYSDWPQAFGQGTRLDIK
1 ng/mL | MPK171-v2 (antibody, V domains shown) VH: QVQLVQSGAEVKKPGESLKISCKGSGYSFINYWIGWVRQMPGKGLEWMGIIYPFDSDTKYSPSFQGHVTISADKSINTAYVQWSSLKASDTAMYYCARFTFGIAVVTDDVSGEGHAFDIWGQGTMVTVSS VL: QSVLTQSPATLSVSPGERATLSCRASQSVAGNLAWYQQRPGQAPRLLIYGASTRATGVPARFSGSGSETEFTLTISSLQSEDFAVYYCQQYSNWPQAFGQGTRLDIK
1.3 ng/mL | MPK168 (antibody, V domains shown) VH: EVQLVQSGAEVKKPGESLKISCQVSGYSFVNYWIGWVRQVPGKGLEWMGLIYPFDSDTQYSPSFQGHVTISADTSITTAYLQWSSLQASDTATYYCARFTFGLALVTAGLTDDGQAFDFWGQGTVVTVSS VL: EIVMMQSPATLSVSPGERATLSCRATESVAGKLAWYQQRPGQTPRLLIYGASARATGVPARFSGSGSETEFTLTISSLQSEDFAVYYCQQYSTWPHAFGQGTRLDIK
1 ng/mL | MPK165 (antibody, V domains shown) VH: EVQLVQSGAEVKKPGESLKISCRASGYSFNNYWVGWVRQVPGKGLEWMGFIYPFDSDTKYSPSFEGHVTISADKSIDTAYLQWSSLRSSDTAIYYCARFTFGIALVAGDVTGGGQAFEVWGQGTLVTVSS VL: EIVMTQSPATLSVSPGERATLSCRASQSVAGKLAWYQQRPGQAPRLIIYAASTRAAGVPARFSGSGSETEFTLTISSLQSEDFAVYYCHHYSNWPQAFGQGTRLDIK
1.2 ng/mL | MPK189 (antibody, V domains shown) VH: QVQLVQSGAEVKKPGESLKISCKGSGYSFINYWIGWVRQMPGKGLEWMGIIYPFDSDTKYSPSFQGHVTISADKSINTAYVQWSSLKASDTAMYYCARFTFGIAVVTDDVSDEGHAFDIWGQGTMVTVSS VL: EIVMMQSPATLSVSPGERATLSCRASQSVAGNLAWYQQRPGQAPRLLIYGASTRATGVPARFSGSGSETEFTLTISSLQSEDFAVYYCQQYSNWPQAFGQGTRLDIK
1 ng/mL | MPK178 (antibody, V domains shown) VH: EVQLVQSGAEVKKPGESLKISCRASGYSFVNYWIGWVRQVPGKGLEWMGFIYPFDSDTQYSPSFQGHVTISADKSINTAYLQWSSLRASDTAIYYCARFTFGIALVAGDVTGGGQAFEVWGQGTLVSVSS VL: DIVMTQSPVTLSVSPGERATLSCRASQSVAGNLAWYQQRPGQAPRLLIYAASTRATGVPARFSGSGSETEFTLTISSLQSEDFAVYYCHHYSNWPQAFGQGTRLDIK
1.2 ng/mL | MPK198 (antibody, V domains shown) VH: EVQLVQSGAEVKKPGESLKISCKGSGYSFINYWIGWVRQMPGKGLEWMGIIYPFDSDTKYSPSFQGHVTISADKSINTAYVQWSSLKASDTAMYYCARFTFGIAVVTDDVSGEGQAFDIWGQGTMVTVSS VL: EIVMMQSPATLSVSPGERATLSCRASQSVAGNLAWYQQRPGQAPRLLIYGASTRATGVPARFSGSGSETEFTLTISSLQSEDFAVYYCQQYSNWPQAFGQGTRLDIK
1.2 ng/mL | MPK186 (antibody, V domains shown) VH: QVQLVQSGAEVKKPGESLKISCQGSGYSFINYWIGWVRQMPGKGLEWMGIIYPFDSETKYSPSFQGHVTISADKSINTAYVQWSSLKASDTAMYYCARFTFGIAVVTDDVYGEAQGFDIWGQGTMVTVSS VL: DIVMTQTPATLSVSPGERATLSCRASQSVDGNLAWYQQRPGQAPRLLIYGASTRATGVPARFSGSGSETEFTLTISSLQSEDFAVYYCQHYSNWPQAFGQGTRLDIK
6.6 ng/mL | MPK179-v4 (antibody, V domains shown) VH: QVQLVQSRAEVKKPGESLKISCRASGYSFINYWIGWVRQMPGKGLEWMGIIYPFDSDTKYSPSFEGHVTISADKSINTAYVQWSSLKASDTAIYYCARFTFGIALVAGDVGGEGHAFDIWGQGTLVTVSS VL: DIVMTQSPSSLSASVGDRVTITCRASQTISTYLNWYQQKPGKAPKLLIYAASRLQSGVPSRFSGSGSGTDFTLTISSLQPEDFATYFCQQSYNAPPFTFGPGTKVDIR
9.1 ng/mL | MPK187 (antibody, V domains shown) VH: QVQLVQSGAEVKKPGASVKVSCKTSGYYFNDYFIHWVRHAPGQGLEWMGWVNPLSGATVYAQKFQGWVTLTRDTSINTAYMELTRLTSNDTAMYYCATGALFWTGPTYWGQGTPVTVSA VL: EIVLTQSPATLSLFPGERATLSCRTSQFVSNNLAWYQQRPGQAPRLLIYDASSRASGTPGRFSASGSGTDFTLTVSSLETEDFAIYYCQHRSNWPPGITFGPGTRVDIR
14.7 ng/mL | MPK197 (antibody, V domains shown) VH: QVQLVQSGAEVKKPGASVKVSCKTSGYYFNDYFIHWVRHAPGQGLEWMGWVNPLSGATVYAQKFQGWVTLTRDTSINTAYMELTRLTSNDTALYYCATGALFWTGPTYWGQGTPVTVSA VL: EIVMMQSPATLSLSPGERATLSCRASQSISNNLAWYQQKTGQAPRLLIYDASSRASGTPGRFSASGSGTDFTLTVSSLETEDFAIYYCQHRSNWPPGITFGPGTRVDVR
2 ng/mL | MPK203 (antibody, V domains shown) VH: EVQLVQSGPQVKKPGAAVKVSCKASGFTFTDTTVNWVRQTRGQRLEWMGWIAVGSGTTNYAQKFRDRVTISRDTSTDTAYMELGGLTHDDTAVYYCTTEASRTWFVQTSPFVGFDPWGQGTLVTVSS VL: EIVLTQSPGTLSLSPGERATLSCRASQSVSSSYFAWYQQKPGQTPRVLIYGASNRAPDIPDRFSGSGSGTDFILTISRLEPEDFAIYYCQHYGSSPTFGQGTKVEIK
